Patent publication US7053177B1, “Random peptides that bind to gastro-intestinal tract (GIT) transport receptors and related methods” (Cytogen Corporation, priority 1997, dated 2006)
Ends that are not written are not given here.

Tests used:
BSA = BSA (Bos taurus, UniProt P02769); test: Receptor ELISA of phage on BSA (background control protein); format: binding
Experimental: (§1) 96 well plates were coated overnight with GIT receptor, BSA and, optionally, IDE (insulin degrading enzyme, an irrelevant His-fusion protein)or hTF. The plates were blocked for one hour with 0.5% BSA-PBS. After clarification, the amplified phage were diluted 1:100 in 1% BSA plus 0.05% Tween 20 in PBS and added to the plates. Following incubation of the plates on a rotator for 1 to 2 hours, the plates were washed 5 times with 1% BSA plus 0.05% Tween 20 in PBS. Dilute anti-M13-HRP conjugate (anti-M13 antibody linked to horse radish peroxidase (HRP)) was added to all the wells and the plate was incubated for one hour on a rotator. After the plates were washed 5 times, as described above, TMB substrate was added to the wells. The plates were read at 650 nm absorbance.

[1] = tested on: rat gastro-intestinal tract (closed loop); test: Transport of preselected phage libraries in rat closed loop, detected by oligonucleotide hybridization/autoradiography; conditions: D2H pool; in words
Experimental: Four preselected phage libraries, GI-D2H, GI-hSI, GI-HPT1 and GI-hPEPT1, were constructed by pooling phage previously selected by screening random phage display libraries D38 and DC43 using the HPT1, HPEPT1, D2H and hSI receptor or binding sites located in the GIT.
In particular, phages selected in vitro to each receptor or binding site located in the GIT were amplified in E. coli, PEG-precipitated, resuspended in TBS and the titer of each phage sample was determined by plaquing in E. coli as described above. […] Using the in situ loop model described above, 0.5 ml of preselected phage library solution was injected into the tied-off portion of the duodenum/jejunum. Blood was collected into heparinized tubes from the portal vein at 0, 15, 30, 45 and 60 minutes. A blood sample was taken from the systemic circulation at the end of the experiment. Similarly, the portion of the duodenum/jejunum used for phage injection was taken at the end of the experiment.
Thirty microliters of the collected portal blood (neat and 10^−2, 10^−1, 10^−6 dilutions) was added to 30 μl E. coli K91Kan cells (overnight culture) and incubated at 37° C. for 10 min. Subsequently, 3 ml of top agarose was added and the samples were plated for plaques. One hundred microliters of the collected portal blood was added to 100 μl of E. coli K91Kan. Five milliliters of LB medium was then added and the samples were incubated at 37° C. overnight in a rotating microbial incubator. The E. coli was removed by centrifugation and the amplified phage supernatant samples were either titered directly or were PEG-precipitated, resuspended in TBS and titered. Following titration of the amplified phage, samples containing phage from each set of animals were combined, adjusting the titer of each sample to the same titer, and were plated for plaques on LB agar lates (22 cm^2 square plates). Either 12,000 or 24,000 phage were lated for plaques.
Thirty microliters of the collected systemic blood (neat and 10^−2, 10^−1, 10^−6 dilutions) was added to E. coli K91Kan cells, incubated at 37° C. for 10 min. Three ml of top agarose was then added and the samples were plated for plaques. One hundred microliters of the collected systemic blood was added to 100 μl of E. coli K91Kan, incubated at 37° C. for 10 min. Five milliliters of LB medium was then added and the samples were incubated at 37° C. overnight in a rotating microbial incubator. The E. coli was removed by centrifugation and the amplified phage supernatant samples were either titered directly or were PEG-precipitated, resuspended in TBS and titered. Following titration of the amplified phage, samples containing phage from each set of animals were combined, adjusting the titer of each sample to the same titer, and were plated for plaques on LB agar plates (22 cm^2 square plates). Either 12,000 or 24,000 phage were plated for plaques.
The intestinal tissue portion used in each closed loop was excised. […] Alternatively, the tissue (in PBS supplemented with protease inhibitors) was homogenized in an Ultra Thorex homogenizer, washed 3 times in PBS containing protease inhibitors and resuspended in PBS containing protease inhibitors (Int-G samples). In each case, serial dilutions (neat and 10^−2, 10^−4, 10^−6 dilutions) of the tissue homogenate was titered in E. coli.
The phage amplified from the portal blood, systemic blood and intestinal tissue was plated for plaques. […] The filters were air-dried, and the DNA was cross-linked to the filter (UV crosslinking: 2 min, high setting). The filters were incubated in pre-hybridization buffer (6×SSC, 5× Denhardt's solution, 0.1% SDS, […] yeast tRNA) at 40° C.–45° C. for at least 60 min.
Synthetic oligonucleotides, (22-mers), complimentary to regions coding for the receptor or binding sites used to create the preselected phage library, were synthesized (see Table 14 below).

[2] = target: bovine serum albumin (bovine) (UniProt P02769); test: phage ELISA on coated BSA
Sequence of bovine serum albumin (bovine) (P02769 25-607 limits assumed): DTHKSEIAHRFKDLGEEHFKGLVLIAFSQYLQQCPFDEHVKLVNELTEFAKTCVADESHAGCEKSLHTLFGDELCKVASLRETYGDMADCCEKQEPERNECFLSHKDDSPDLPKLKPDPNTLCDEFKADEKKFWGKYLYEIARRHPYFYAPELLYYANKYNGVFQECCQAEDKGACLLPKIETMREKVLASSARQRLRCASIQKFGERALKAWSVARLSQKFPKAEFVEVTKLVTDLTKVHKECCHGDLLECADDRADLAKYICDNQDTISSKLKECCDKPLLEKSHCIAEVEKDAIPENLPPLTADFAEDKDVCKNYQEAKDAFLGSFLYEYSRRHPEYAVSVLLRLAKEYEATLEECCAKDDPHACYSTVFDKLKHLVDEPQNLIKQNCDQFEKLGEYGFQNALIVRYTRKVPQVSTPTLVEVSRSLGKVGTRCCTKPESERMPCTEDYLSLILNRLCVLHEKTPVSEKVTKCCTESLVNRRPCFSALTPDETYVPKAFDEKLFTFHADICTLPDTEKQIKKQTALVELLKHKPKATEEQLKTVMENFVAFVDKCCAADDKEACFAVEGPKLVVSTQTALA

[3] = target: T1, recombinant hPEPT1 receptor domain (human PEPT1, amino acid residues 391-571), His-tag fusion protein (human, UniProt P46059 391-571); test: phage ELISA on coated hPEPT1
T1 construct: purified under denaturing conditions; coated on plates
T1 sequence: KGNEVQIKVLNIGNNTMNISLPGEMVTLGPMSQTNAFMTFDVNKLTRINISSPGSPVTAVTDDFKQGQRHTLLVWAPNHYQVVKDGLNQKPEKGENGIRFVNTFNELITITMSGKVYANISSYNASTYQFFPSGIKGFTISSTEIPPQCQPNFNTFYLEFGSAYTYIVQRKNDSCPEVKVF
Experimental: as §1, with “6.6. Receptor ELISA Procedure 96” for “96”, “Dilute anti-M13-HRP conjugate (anti-M13 antibody linked to horse radish peroxidase (HRP)) was added to all the wells and the plate was incubated for one hour on a rotator.” left out

[4] = target: T1, recombinant hPEPT1 receptor domain …; test: phage ELISA, OD on hPEPT1 over OD on BSA
Experimental: as §1, with “6.6. Receptor ELISA Procedure 96” for “96”, “Dilute anti-M13-HRP conjugate (anti-M13 antibody linked to horse radish peroxidase (HRP)) was added to all the wells and the plate was incubated for one hour on a rotator.” left out

[5] = target: T2, recombinant hPEPT1 receptor domain (human PEPT1, amino acid residues 391-571), His-tag fusion protein (human) (UniProt P46059); test: phage ELISA on coated hPEPT1
T2 sequence: T1 sequence

[6] = target: T2, recombinant hPEPT1 receptor domain (human PEPT1, amino acid residues 391-571), His-tag fusion protein (human); test: phage ELISA, OD on hPEPT1 over OD on BSA
[7] = Table 1, phage panned on hSI, 650 nm
[8] = Table 3, two pans on D2H, third on Caco-2 snapwells

Sequence of BSA (P02769 25-607): as the sequence (P02769 25-607 limits assumed) above

Question: “RVGQCTDSDVRRPWARSCAHQGCGAGTRNSHGCITRPLRQASAH [SNi10]” was tested. Which BSA (BSA; [7]) did it give?
Answer: 0.051 OD

Question: For “RYKHDIGCDAGVDKKSSSVRGGCGAHSSPPRAGRGPRGTMVSRL [DCX8]”, which BSA (BSA; [8]) is on record?
Answer: 0.063 OD

Question: And the “Presence in the intestinal samples fractions” value [1]?
Answer: to a much lesser extent

Question: And the “Transport from the GIT closed loop model into the portal circulation” value [1]?
Answer: transported

Question: Which BSA (BSA; [7]) does the source give for “SPCGGSWGRFMQGGLFGGRTDGCGAHRNRTSASLEPPSSDY [SNi34]” here?
Answer: 0.115 OD

Question: How did the BSA (BSA; [8]) turn out when “SQGSKQCMQYRTGRLTVGSEYGCGMNPARHATPAYPARLLPRYR [DCX11]” was run?
Answer: 0.071 OD

Question: What about the “Presence in the intestinal samples fractions” value [1] of the same molecule?
Answer: found

Question: What about the “Transport from the GIT closed loop model into the portal circulation” value [1] of the same molecule?
Answer: preferably transported

B1: phage PAX46 (peptide)
peptide: SRCTDNEQCPDTGTRSRSVSNARYFSSRLLKTHAPHRP
modifications: cysteine pairing not given here; also: displayed as N-terminal pIII fusion on M13 phage
notes: M13 phage displaying this insert as N-terminal pIII fusion; whole phage in the ELISA; not shown: M13 phage particle / pIII display carrier (and vector flanks)
Question: What does the source list for B1?
Answer: OD [2]: 0.077 OD 650 nm; OD [3]: 0.429 OD 650 nm; PEPT1/BSA [4]: 6 ratio

B2: phage PAX45 (peptide)
peptide: SFQVYPDHGLERHALDGTGPLYAMPGRWIRARPQNRDRQ
modifications: also: displayed as N-terminal pIII fusion on M13 phage
notes: as for B1
Question: How did the OD [2] turn out when B2 was run?
Answer: 0.081 OD 650 nm

Question: And the OD [3]?
Answer: 0.419 OD 650 nm

Question: And the PEPT1/BSA [4]?
Answer: 5 ratio

B3: phage PAX17 (peptide)
peptide: SQVDSFRNSFRWYEPSRALCHGCGKRDTSTTRIHNSPSDSYPTR
modifications: cysteine pairing not given here; also: displayed as N-terminal pIII fusion on M13 phage
notes: as for B1
Question: With B3 as the molecule, how does the OD [2] read?
Answer: 0.095 OD 650 nm

Question: And the OD [3]?
Answer: 0.514 OD 650 nm

Question: What about the PEPT1/BSA [4] of the same molecule?
Answer: 5 ratio

B4: phage P90 (peptide)
peptide: SSADAEKCAGSLLWWGRQNNSGCGSPTKKHLKHRNRSQTSSSSH
modifications: cysteine pairing not given here; also: displayed as N-terminal pIII fusion on M13 phage
notes: M13 phage displaying this insert as N-terminal pIII fusion; whole phage in the ELISA; not shown: M13 pIII coat protein and phage particle (display carrier)
Question: Which results are given for B4?
Answer: OD [2]: 0.107 OD 650 nm; OD [3]: 1.12 OD 650 nm; PEPT1/BSA [4]: 9 ratio

Question: For RWPSVGYKGNGSDTIDVHSNDASTKRSLIYNHRRPLFP (peptide, not shown: large carriers) [phage PAX9], which OD [2] is on record?
Answer: 0.079 OD 650 nm

Question: And the OD [5]?
Answer: 0.312 OD 650 nm

Question: What about the PEPT1/BSA [6] of the same molecule?
Answer: 4

Question: What does the source list for SYCRVKGGGEGGHTDSNLARSGCGKVARTSRLQHINPRATPPSR (peptide, not shown: large carriers) [phage PAX15]?
Answer: OD [2]: 0.079 OD 650 nm; OD [5]: 0.301 OD 650 nm; PEPT1/BSA [6]: 4

Question: Which results are given for RWGWERSPSDYDSDMDLGARRYATRTHRAPPRVLKAPLP (peptide, not shown: large carriers, also: displayed as N-terminal pIII fusion on M13 phage) [phage 5PAX7]?
Answer: OD [2]: 0.037 OD 650 nm; OD [5]: 0.171 OD 650 nm; PEPT1/BSA [6]: 5

B5: phage PAX18 (peptide)
peptide: SFLRFQSPRFEDYSRTISRLRNATNPSNVSDAHNNRALA
modifications: also: displayed as N-terminal pIII fusion on M13 phage
notes: as for B1
Question: Which results are given for B5?
Answer: OD [2]: 0.087 OD 650 nm; OD [3]: 0.416 OD 650 nm; PEPT1/BSA [4]: 5 ratio

B6: phage PAX43 (peptide, not shown: large carriers)
peptide: RWCEKHKFTAARCSAGAGFERDASRPPQPAHRDNTNRNA
modifications: cysteine pairing not given here; also: displayed as N-terminal pIII fusion on M13 phage
Question: Which OD [2] does the source give for B6 here?
Answer: 0.069 OD 650 nm

Question: And the OD [5]?
Answer: 0.345 OD 650 nm

Question: And the PEPT1/BSA [6]?
Answer: 5

B7: phage PAX35 (peptide)
peptide: RSITDGGINEVDLSSVSNVLENANSHRAYRKHRPTLKRP
modifications: also: displayed as N-terminal pIII fusion on M13 phage
notes: as for B1
Question: For B7, which OD [2] is on record?
Answer: 0.065 OD 650 nm

Question: What about the OD [3] of the same molecule?
Answer: 0.474 OD 650 nm

Question: And the PEPT1/BSA [4]?
Answer: 7 ratio

Question: Which OD [2] does the source give for RGSTGTAGGERSGVLNLHTRDNASGSGFKPWYPSNRGHK (peptide, not shown: large carriers, also: displayed as N-terminal pIII fusion on M13 phage) [phage 5PAX5] here?
Answer: 0.036 OD 650 nm

Question: What about the OD [5] of the same molecule?
Answer: 0.15 OD 650 nm

Question: And the PEPT1/BSA [6]?
Answer: 4

B8: phage PAX40 (peptide)
peptide: RASTQGGRGVAPEFGASVLGRGCGSATYYTNSTSCKDAMGHNYS
modifications: cysteine pairing not given here; also: displayed as N-terminal pIII fusion on M13 phage
notes: as for B1
Question: For B8, which OD [2] is on record?
Answer: 0.076 OD 650 nm

Question: And the OD [3]?
Answer: 0.461 OD 650 nm

Question: And the PEPT1/BSA [4]?
Answer: 6 ratio

B9: phage PAX38 (peptide, not shown: large carriers)
peptide: SSKVSSPRDPTVPRKGGNVDYGCGHRSSARMPTSALSSITKCYT
modifications: cysteine pairing not given here; also: displayed as N-terminal pIII fusion on M13 phage
Question: Which OD [2] does the source give for B9 here?
Answer: 0.064 OD 650 nm

Question: What about the OD [5] of the same molecule?
Answer: 0.292 OD 650 nm

Question: What about the PEPT1/BSA [6] of the same molecule?
Answer: 5

B10: phage P31 (peptide)
peptide: SARDSGPAEDGSRAVRLNGVENANTRKSSRSNPRGRRHP
modifications: also: displayed as N-terminal pIII fusion on M13 phage
notes: as for B4
Question: B10 was tested. Which OD [2] did it give?
Answer: 0.075 OD 650 nm

Question: What about the OD [3] of the same molecule?
Answer: 0.807 OD 650 nm

Question: What about the PEPT1/BSA [4] of the same molecule?
Answer: 11 ratio

Question: For RPKNVADAYSSQDGAAAEETSHASNAARKSPKHKPLRRP (peptide, not shown: large carriers, also: displayed as N-terminal pIII fusion on M13 phage) [phage 5PAX3], which OD [2] is on record?
Answer: 0.04 OD 650 nm

Question: And the OD [5]?
Answer: 0.173 OD 650 nm

Question: What about the PEPT1/BSA [6] of the same molecule?
Answer: 4
